Laboratory results from patent CN109810195A (INST OF HEMATOLOGY BLOOD DISEASES HOSPITAL OF CHINESE …, dated 2019).

Target: T1, 人CD123蛋白 (白细胞介素3受体α链, IL3RA) (human, UniProt P26951 19-378)
T1 construct: whole, on cells
Experiment: FACS, PE-labelled 13C3 titrated (200nM to 0.003nM) on 3T3 cells transfected with CD123; Kd fitted in GraphPad Prism 5

T1 sequence (P26951 19-378): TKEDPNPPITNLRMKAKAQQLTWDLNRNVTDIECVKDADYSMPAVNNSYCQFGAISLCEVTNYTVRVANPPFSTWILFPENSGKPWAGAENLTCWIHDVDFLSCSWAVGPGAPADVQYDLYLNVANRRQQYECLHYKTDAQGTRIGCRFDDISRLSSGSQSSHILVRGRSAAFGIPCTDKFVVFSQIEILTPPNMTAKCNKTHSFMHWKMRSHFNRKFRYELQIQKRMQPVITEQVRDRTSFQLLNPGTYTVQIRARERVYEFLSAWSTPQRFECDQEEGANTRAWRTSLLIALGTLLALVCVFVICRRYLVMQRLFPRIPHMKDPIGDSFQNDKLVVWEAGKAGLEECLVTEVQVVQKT

B1: 鼠抗人CD123单克隆抗体13C3 (antibody, V domains shown)
VH: QVQLQESGPGILQPSQTLTLTCSFSGFSLSTSGMGVGWIRQPSGKGLEWLAHIWWDDDKRYKPALKSRLTISKDTSSNQVFLKIASVDTADAATYYCARMGGGNYLFLYAMDFWGQGTSVTVSA
VL: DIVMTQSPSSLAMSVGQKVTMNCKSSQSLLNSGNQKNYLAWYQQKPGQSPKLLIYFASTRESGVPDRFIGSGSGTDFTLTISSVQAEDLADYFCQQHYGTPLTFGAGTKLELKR
notes: PE-labelled purified antibody in the Kd assay and on patient samples; also called 抗CD123单克隆抗体13C3; 杂交瘤细胞株13C3 (CGMCC No.16699) 产生的抗体
Kd: 3.67 nM
